By Kd is commonly meant the equilibrium constant for the complex coming apart.

Here are results for eight molecules from publication PMC3591319 (PLoS Pathogens, 2013).

The target in assay [1] is gp140-92UG037 (recombinant Env gp140 of HIV-1 strain 92UG037) (HIV-1 clade A (92UG037)). Description: SPR; Biacore T100; gp140-92UG037 immobilised to 1500 RU on CM-5; VHH injected at 6.25, 25, 100 and 400 nM for 60 s; 10 mM HEPES, 150 mM NaCl, pH 7.4, 0.005% Tween-20; two-state reaction fit (2H10), heterogeneous ligand and two-state fits (bi-2H10). (SPR reads the build-up and loss of mass on a sensor chip optically.)

The target is the same in assay [2].
For assay [3] the target is unchanged. Description: SPR; Biacore T100; gp140-92UG037 immobilised on CM-5; single concentration injections of 100 nM VHH for 60 s; two-state reaction fit.
Assay [4] has as its target gp41INT (soluble form of the fusion intermediate conformation of gp41) (not stated | HIV-1). Description: SPR; Biacore 3000; gp41INT or gp41 528-683 immobilised to 1000 RU on CM-5; VHH injected 1 to 200 nM for 150 s; 10 mM HEPES, 150 mM NaCl, pH 7.4, 50 uM EDTA, 0.005% P-20; 1:1 Langmuir fit, or separate association and dissociation fits for 2H10 and 2H10-W100A on gp41INT.

The target of assay [5] is gp140-92UG037 (recombinant Env gp140 of HIV-1 strain 92UG037) (HIV-1 clade A (92UG037)). Description: SPR.
The target of assay [6] is gp41 528-683 (potential late fusion intermediate conformation of gp41) (HIV-1) (UniProt P04578). Description: SPR; Biacore 3000; […]; 10 mM HEPES, 150 mM NaCl, […]; 1:1 Langmuir fit, […].
The target of assay [7] is T1, linear gp41 MPER peptide 655KNEQELLELDKWASL669 (HIV-1 clade B (HXB2 sequence)).
T1 chain: KNEQELLELDKWASL
Description: ITC; 25 C; 10 uM 2H10 in the cell, about 100 uM peptide in the syringe; 20 mM HEPES pH 7.4, 100 mM NaCl; single binding site model. The note with it: both partners purified. (In general: In ITC the heat of successive injections is recorded.)

Assay [8] deals with T2, gp41CHRTM (HIV-1 gp41 C-terminal heptad repeat, MPER and transmembrane regions) (HIV-1 clade B (HXB2), UniProt P04578).
T2 construct: also called gp41 proteoliposomes; gp41CHRTM proteoliposomes
Description: ELISA. The settings on record: both partners purified. On the technique in general: An ELISA detects its analyte on a solid surface through an enzyme-linked reagent.

With “2H10 (llama anti-gp41 MPER VHH, monovalent, myc/His-tagged)”, the Kd came to 4 nM in assay [1], 8 nM in assay [3] and 29 nM in assay [4]. The IC50 of neutralisation of HIV-1 92UG037.A9 (molecular clone) in TZM-bl cells in assay [2] is over 50 µg/mL. The IC50 of neutralisation of pseudovirus 92UG0378 in TZM-bl cells in assay [2] is over 50 µg/mL.
In the case of 2H10-R71S (VHH), in assay [5], the Kd came out at 18.7 nM.
In the case of 2H10-S29F (VHH), in assay [5], the Kd worked out at 5.5 nM.
As for 2H10-W100A (VHH), the Kd in assay [5] was 10.1 nM.
As to “bi-2H10 with 15GS linker (bivalent 2H10) (VHH)”, the Kd in assay [1] came out at 0.15 nM; in assay [6] it was 1.1 nM; in assay [4], 2.5 nM. Moreover, the IC50 of neutralisation of HIV-1 92UG037.A9 (molecular clone) in TZM-bl cells in assay [2] amounted to 2.4 µg/mL. Also, in assay [2], the IC50 of neutralisation of pseudovirus 92UG0378 in TZM-bl cells turned out to be 4.66 µg/mL.
In the case of “bi-2H10 with 17GS linker (bivalent 2H10) (VHH)”, in assay [2], the IC50 of neutralisation of HIV-1 92UG037.A9 (molecular clone) in TZM-bl cells came out at 28 µg/mL.

B1: 2H10 (VHH without 6his-tag or myc tag) (VHH)
VHH: EVQLVESGGGLVQPGGSLRLSCAASGSISSVDVMSWYRQAPGKQRELVAFITDRGRTNYKVSVKGRFTISRDNSKNMVYLQMNSLKPEDTADYLCRAESRTSWSSPSPLDVWGRGTQVTVSS
Turning to B1, binding in assay [7] was characterised by a dissociation constant (Kd) of 35 nM.

B2: 2H10 (llama anti-gp41 MPER VHH, monovalent, myc/His-tagged) (VHH)
VHH: B1 VHH
notes: also called 2H10 monohead; VHH 2H10
B2: the binding result in assay [8] is reported as “binds”.
